# Measured values: paper PMC12102759 (2025)
# B1: RNF115 peptide 67-82 (E3 ubiquitin-protein ligase RNF115), 16-mer library wild type / MDM2 SWIB (MDM2 SWIB/MDM2 domain, residues 17-125) (parent complex)
# chain 1: TTTHFAELWGHLDHTM
# chain 2: SQIPASEQETLVRPKPLLLKLLKSVGAQKDTYTMKEVLFYLGQYIMTKRLYDEKQQHIVYCSNDLLGDLFGVPSFSVKEHRKIYTMIYRNLVVVNQQESSDSGTSVSEN
# Variants of: B1
# Test: proteomic peptide phage display deep mutational scan (ProP-PD DMS): M13 P8 16-mer library selected against immobilised GST-tagged bait for four days (rounds), NGS of the eluted pools per day and pseudo-replica; bait immobilised on MaxiSorp plates (10 µg), library pre-cleared on GST, 2 h binding at 4 °C, five washes; one round per day, days 1-4; value from days 2 and 3
row,Variant,screen value
1,chain 1 G10Q,"0.000894 average fractional NGS count over selection days 2 and 3 (reads of this peptide / all reads for the bait, averaged over …"
2,chain 1 G10N,"0.000457 average fractional NGS count over selection days 2 and 3 (reads of this peptide / all reads for the bait, averaged over …"
3,chain 1 G10W,"0.000571 average fractional NGS count over selection days 2 and 3 (reads of this peptide / all reads for the bait, averaged over …"
4,chain 1 G10Y,"0.000227 average fractional NGS count over selection days 2 and 3 (reads of this peptide / all reads for the bait, averaged over …"
5,chain 1 G10T,"0.000148 average fractional NGS count over selection days 2 and 3 (reads of this peptide / all reads for the bait, averaged over …"
6,chain 1 G10I,"7.33e-05 average fractional NGS count over selection days 2 and 3 (reads of this peptide / all reads for the bait, averaged over …"
7,chain 1 G10S,"0.00615 average fractional NGS count over selection days 2 and 3 (reads of this peptide / all reads for the bait, averaged over …"
8,chain 1 T2G,"0.00135 average fractional NGS count over selection days 2 and 3 (reads of this peptide / all reads for the bait, averaged over …"
9,chain 1 T2P,"0.000494 average fractional NGS count over selection days 2 and 3 (reads of this peptide / all reads for the bait, averaged over …"
10,chain 1 T2I,"0.00157 average fractional NGS count over selection days 2 and 3 (reads of this peptide / all reads for the bait, averaged over …"
11,chain 1 T2H,"0.000527 average fractional NGS count over selection days 2 and 3 (reads of this peptide / all reads for the bait, averaged over …"
12,chain 1 T2Q,"0.00139 average fractional NGS count over selection days 2 and 3 (reads of this peptide / all reads for the bait, averaged over …"
13,chain 1 T2A,"0.00136 average fractional NGS count over selection days 2 and 3 (reads of this peptide / all reads for the bait, averaged over …"
14,chain 1 T2S,"0.000484 average fractional NGS count over selection days 2 and 3 (reads of this peptide / all reads for the bait, averaged over …"
15,chain 1 T2V,"0.000589 average fractional NGS count over selection days 2 and 3 (reads of this peptide / all reads for the bait, averaged over …"
16,chain 1 T2E,"0.0056 average fractional NGS count over selection days 2 and 3 (reads of this peptide / all reads for the bait, averaged over …"
17,chain 1 T2Y,"0.000215 average fractional NGS count over selection days 2 and 3 (reads of this peptide / all reads for the bait, averaged over …"
18,chain 1 H4K,"0.000298 average fractional NGS count over selection days 2 and 3 (reads of this peptide / all reads for the bait, averaged over …"
19,chain 1 H4T,"0.002 average fractional NGS count over selection days 2 and 3 (reads of this peptide / all reads for the bait, averaged over …"
20,chain 1 H4E,"0.000591 average fractional NGS count over selection days 2 and 3 (reads of this peptide / all reads for the bait, averaged over …"
21,chain 1 H4M,"0.000847 average fractional NGS count over selection days 2 and 3 (reads of this peptide / all reads for the bait, averaged over …"
22,chain 1 H4P,"0.000821 average fractional NGS count over selection days 2 and 3 (reads of this peptide / all reads for the bait, averaged over …"
23,chain 1 H4Y,"0.000766 average fractional NGS count over selection days 2 and 3 (reads of this peptide / all reads for the bait, averaged over …"
24,chain 1 H4N,"0.000308 average fractional NGS count over selection days 2 and 3 (reads of this peptide / all reads for the bait, averaged over …"
25,chain 1 H4V,"0.000238 average fractional NGS count over selection days 2 and 3 (reads of this peptide / all reads for the bait, averaged over …"

row,Variant,screen value
1,chain 1 H4S,"0.0034 average fractional NGS count over selection days 2 and 3 (reads of this peptide / all reads for the bait, averaged over …"
2,chain 1 H4Q,"0.00071 average fractional NGS count over selection days 2 and 3 (reads of this peptide / all reads for the bait, averaged over …"
3,chain 1 A6M,"0.00215 average fractional NGS count over selection days 2 and 3 (reads of this peptide / all reads for the bait, averaged over …"
4,chain 1 A6E,"0.000746 average fractional NGS count over selection days 2 and 3 (reads of this peptide / all reads for the bait, averaged over …"
5,chain 1 A6L,"0.00496 average fractional NGS count over selection days 2 and 3 (reads of this peptide / all reads for the bait, averaged over …"
6,chain 1 A6I,"0.000155 average fractional NGS count over selection days 2 and 3 (reads of this peptide / all reads for the bait, averaged over …"
7,chain 1 H14T,"0.000601 average fractional NGS count over selection days 2 and 3 (reads of this peptide / all reads for the bait, averaged over …"
8,chain 1 H14G,"0.00396 average fractional NGS count over selection days 2 and 3 (reads of this peptide / all reads for the bait, averaged over …"
9,chain 1 H14I,"0.00129 average fractional NGS count over selection days 2 and 3 (reads of this peptide / all reads for the bait, averaged over …"
10,chain 1 H14N,"0.00027 average fractional NGS count over selection days 2 and 3 (reads of this peptide / all reads for the bait, averaged over …"
11,chain 1 H14W,"0.00227 average fractional NGS count over selection days 2 and 3 (reads of this peptide / all reads for the bait, averaged over …"
12,chain 1 H14F,"0.00117 average fractional NGS count over selection days 2 and 3 (reads of this peptide / all reads for the bait, averaged over …"
13,chain 1 H14Q,"0.000199 average fractional NGS count over selection days 2 and 3 (reads of this peptide / all reads for the bait, averaged over …"
14,chain 1 H14P,"0.000471 average fractional NGS count over selection days 2 and 3 (reads of this peptide / all reads for the bait, averaged over …"
15,chain 1 H14L,"0.00317 average fractional NGS count over selection days 2 and 3 (reads of this peptide / all reads for the bait, averaged over …"
16,chain 1 H14M,"0.00126 average fractional NGS count over selection days 2 and 3 (reads of this peptide / all reads for the bait, averaged over …"
17,chain 1 H14V,"0.00211 average fractional NGS count over selection days 2 and 3 (reads of this peptide / all reads for the bait, averaged over …"
18,chain 1 E7I,"0.000492 average fractional NGS count over selection days 2 and 3 (reads of this peptide / all reads for the bait, averaged over …"
19,chain 1 L12A,"0.000185 average fractional NGS count over selection days 2 and 3 (reads of this peptide / all reads for the bait, averaged over …"
20,chain 1 L12N,"0.000651 average fractional NGS count over selection days 2 and 3 (reads of this peptide / all reads for the bait, averaged over …"
21,chain 1 L12I,"0.000166 average fractional NGS count over selection days 2 and 3 (reads of this peptide / all reads for the bait, averaged over …"
22,chain 1 L8M,"0.000104 average fractional NGS count over selection days 2 and 3 (reads of this peptide / all reads for the bait, averaged over …"
23,chain 1 L8W,"0.00339 average fractional NGS count over selection days 2 and 3 (reads of this peptide / all reads for the bait, averaged over …"
24,chain 1 L8I,"7.89e-05 average fractional NGS count over selection days 2 and 3 (reads of this peptide / all reads for the bait, averaged over …"
25,chain 1 H11Y,"0.00946 average fractional NGS count over selection days 2 and 3 (reads of this peptide / all reads for the bait, averaged over …"

row,Variant,screen value
1,chain 1 H11R,"0.000902 average fractional NGS count over selection days 2 and 3 (reads of this peptide / all reads for the bait, averaged over …"
2,chain 1 H11E,"0.000714 average fractional NGS count over selection days 2 and 3 (reads of this peptide / all reads for the bait, averaged over …"
3,chain 1 H11I,"0.000552 average fractional NGS count over selection days 2 and 3 (reads of this peptide / all reads for the bait, averaged over …"
4,chain 1 H11F,"0.00626 average fractional NGS count over selection days 2 and 3 (reads of this peptide / all reads for the bait, averaged over …"
5,chain 1 H11W,"0.00259 average fractional NGS count over selection days 2 and 3 (reads of this peptide / all reads for the bait, averaged over …"
6,chain 1 H11Q,"0.00312 average fractional NGS count over selection days 2 and 3 (reads of this peptide / all reads for the bait, averaged over …"
7,chain 1 H11A,"0.0021 average fractional NGS count over selection days 2 and 3 (reads of this peptide / all reads for the bait, averaged over …"
8,chain 1 H11L,"0.00334 average fractional NGS count over selection days 2 and 3 (reads of this peptide / all reads for the bait, averaged over …"
9,chain 1 M16A,"9.05e-05 average fractional NGS count over selection days 2 and 3 (reads of this peptide / all reads for the bait, averaged over …"
10,chain 1 M16Y,"0.000534 average fractional NGS count over selection days 2 and 3 (reads of this peptide / all reads for the bait, averaged over …"
11,chain 1 M16V,"0.00172 average fractional NGS count over selection days 2 and 3 (reads of this peptide / all reads for the bait, averaged over …"
12,chain 1 M16F,"0.000243 average fractional NGS count over selection days 2 and 3 (reads of this peptide / all reads for the bait, averaged over …"
13,chain 1 M16E,"0.000437 average fractional NGS count over selection days 2 and 3 (reads of this peptide / all reads for the bait, averaged over …"
14,chain 1 M16L,"0.0016 average fractional NGS count over selection days 2 and 3 (reads of this peptide / all reads for the bait, averaged over …"
15,chain 1 M16Q,"0.000223 average fractional NGS count over selection days 2 and 3 (reads of this peptide / all reads for the bait, averaged over …"
16,chain 1 M16P,"0.000227 average fractional NGS count over selection days 2 and 3 (reads of this peptide / all reads for the bait, averaged over …"
17,chain 1 M16I,"0.000492 average fractional NGS count over selection days 2 and 3 (reads of this peptide / all reads for the bait, averaged over …"
18,chain 1 D13A,"0.00127 average fractional NGS count over selection days 2 and 3 (reads of this peptide / all reads for the bait, averaged over …"
19,chain 1 D13I,"0.00102 average fractional NGS count over selection days 2 and 3 (reads of this peptide / all reads for the bait, averaged over …"
20,chain 1 D13E,"0.000754 average fractional NGS count over selection days 2 and 3 (reads of this peptide / all reads for the bait, averaged over …"
21,chain 1 D13N,"0.000525 average fractional NGS count over selection days 2 and 3 (reads of this peptide / all reads for the bait, averaged over …"
22,chain 1 D13Y,"0.00726 average fractional NGS count over selection days 2 and 3 (reads of this peptide / all reads for the bait, averaged over …"
23,chain 1 D13H,"0.000247 average fractional NGS count over selection days 2 and 3 (reads of this peptide / all reads for the bait, averaged over …"
24,chain 1 D13L,"0.00105 average fractional NGS count over selection days 2 and 3 (reads of this peptide / all reads for the bait, averaged over …"
25,chain 1 F5T,"7.7e-05 average fractional NGS count over selection days 2 and 3 (reads of this peptide / all reads for the bait, averaged over …"
